Reference: publication PMC6109925, “Structural and functional analysis of cystatin E reveals enzymologically relevant dimer and amyloid fibril states” (The Journal of Biological Chemistry, 2018)

Experiments:
[1] = target: human cystatin E, full-length wild type, monomeric (human) (UniProt Q15828); experiment: SEC; S75 10/300 GL; WT cystatin E incubated at 60 °C in citric acid buffer at pH 3.0 before injection; monomer to dimer
[2] = target: human cystatin E, full-length wild type, monomeric (human) (UniProt Q15828); experiment: SEC; S75 10/300 GL, 20 mM citric acid pH 5.5, 100 mM NaCl; sample incubated 10 min at ≥70 °C (70, 80 or 85 °C), pH 5.5, then chilled on ice; monomer to dimer
[3] = target: human cystatin E, full-length wild type, monomeric (human) (UniProt Q15828); experiment: thioflavin T fluorescence; fibril formation after 10 min at 80 °C, 10 mg/ml, 50 mM citric acid, 100 mM NaCl (pH 3–6) or 50 mM Tris, 100 mM NaCl (pH 7.0); ThT fluorescence at 482 nm
[4] = target: human legumain, wild type, activated (human) (UniProt Q99538); experiment: enzyme inhibition kinetics (Morrison equation for tight binding inhibitors); 50 mM citric acid pH 5.5, 100 mM NaCl, 0.05% Tween 20; 100 μM Z-AAN-AMC, 0.01 to 5 nM hCE, 2 nM legumain, 37 °C; triplicates
Chain of human legumain, wild type, activated (human) (Q99538 18-323): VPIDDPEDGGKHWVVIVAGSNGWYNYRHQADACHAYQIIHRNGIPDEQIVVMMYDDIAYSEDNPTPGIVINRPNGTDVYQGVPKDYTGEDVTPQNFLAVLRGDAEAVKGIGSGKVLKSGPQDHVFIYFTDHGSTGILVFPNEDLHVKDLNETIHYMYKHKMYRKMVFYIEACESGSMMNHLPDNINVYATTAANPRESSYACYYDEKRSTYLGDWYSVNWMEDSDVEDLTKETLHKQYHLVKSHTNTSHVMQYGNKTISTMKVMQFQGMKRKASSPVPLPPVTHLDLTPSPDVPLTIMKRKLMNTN

[5] = target: human legumain, wild type, activated (human) (UniProt Q99538); experiment: SEC; S200 10/300 GL; legumain (0.5 mg/ml) incubated with dimeric hCE 1:1 (1 AEP and 1 hCE dimer) or monomeric hCE 1:2 at pH 5.5 for 10 min on ice; fractions on SDS-PAGE; conditions: scale: hCE chains per legumain
[6] = target: glycosylated human cystatin E (human) (UniProt Q15828); experiment: SEC; S75 10/300 GL, 20 mM citric acid pH 5.5, 100 mM NaCl; sample incubated 10 min at ≥70 °C (70, 80 or 85 °C), pH 5.5, then chilled on ice; monomer to dimer
[7] = target: the molecule itself; experiment: as above
[8] = target: the molecule itself; experiment: SEC; S75 10/300 GL, 20 mM citric acid pH 5.5, 100 mM NaCl, 250 μl sample; no destabilising heat (ΔhCE kept at 4 °C and 37 °C before injection); oligomerisation state

With “human cystatin E, full-length wild type, monomeric (from UniProt Q15828 29-149) (natural protein)” as the molecule, how does the stoichiometry N [1] read?
The stoichiometry N was 2.

What about the percent converted to the dimer at 70 °C [2] of the same molecule?
The percent converted to the dimer at 70 °C was over 90%.

And the stoichiometry N [2]?
Its stoichiometry N is 2.

And the fold increase in ThT signal after incubation at pH 3.0 [3]?
The fold increase in ThT signal after incubation at pH 3.0 was 4 fold.

And the Ki [4]?
The Ki was 0.0107 nM.

Which results are given for “dimeric human cystatin E (domain-swapped dimer) (from UniProt Q15828 29-149) (complex)”?
stoichiometry N [5]: 2; Ki [4]: 0.0135 nM

“glycosylated human cystatin E (from UniProt Q15828 29-149) (natural protein)” was tested. Which stoichiometry N [6] did it give?
The stoichiometry N was 2.

B1: human cystatin C, wild type (natural protein, UniProt P01034 27-146, looked up)
chain: SSPGKPPRLVGGPMDASVEEEGVRRALDFAVGEYNKASNDMYHSRALQVVRARKQIVAGVNYFLDVELGRTTCTKTQPNLDNCPFHDQPHLKRKAFCSFQIYAVPWQGTMTLSKSTCQDA
notes: N terminus Ser1 after removal of the pelB leader. numbers count on: the mature protein; Called 'untagged hCC' in the pull-down (it has no Strep-tag), while the methods give a C-terminal His6 tag for the expression constructs; also called hCC; WT cystatin C; source: E. coli Bl21(DE3), periplasm (pelB leader), purified (nickel-nitrilotriacetic acid resin, SEC)
How did the “stoichiometry N” value [7] turn out when B1 was run?
The value was 2.

B2: N-terminally truncated human cystatin E, Δ(Arg4–Leu13)hCE (domain or fragment)
chain: MELSPDDPQVQKAAQAAVASYNMGSNSIYYFRDTHIIKAQSQLVAGIKYFLTMEMGSTDCRKTRVTGDHVDLTTCPLAAGAQQEKLRCDFEVLVVPWQNSSQLLKHNCVQM
How did the “stoichiometry N” value [8] turn out when B2 was run?
The value was 2.
